# Data published in PMC5988984.
# Biological target: HIV-1 reverse transcriptase p66 (HIV-1)
# Assay: SEC
substance,measurement,value
HIV-1 reverse transcriptase p66 (enzyme),stoichiometry N,2
